In publication PMC11251166:

Target: ADP-ribosylated ubiquitin (ADPR-Ub) (UniProt P0CG48)
Experiment: ITC

MavL_N322A
Kd: 5.96 µM
